# Article PMC6056229, “Cryo-EM structure of the polycystin 2-l1 ion channel” (eLife, 2018)
# B1: human polycystic kidney disease 2-like 1 (polycystin 2-l1) ion channel (natural protein, UniProt Q9P0L9 1-805, looked up)
# chain: MNAVGSPEGQELQKLGSGAWDNPAYSGPPSPHGTLRVCTISSTGPLQPQPKKPEDEPQETAYRTQVSSCCLHICQGIRGLWGTTLTENTAENRELYIKTTLRELLVYIVFLVDICLLTYGMTSSSAYYYTKVMSELFLHTPSDTGVSFQAISSMADFWDFAQGPLLDSLYWTKWYNNQSLGHGSHSFIYYENMLLGVPRLRQLKVRNDSCVVHEDFREDILSCYDVYSPDKEEQLPFGPFNGTAWTYHSQDELGGFSHWGRLTSYSGGGYYLDLPGSRQGSAEALRALQEGLWLDRGTRVVFIDFSVYNANINLFCVLRLVVEFPATGGAIPSWQIRTVKLIRYVSNWDFFIVGCEVIFCVFIFYYVVEEILELHIHRLRYLSSIWNILDLVVILLSIVAVGFHIFRTLEVNRLMGKLLQQPNTYADFEFLAFWQTQYNNMNAVNLFFAWIKIFKYISFNKTMTQLSSTLARCAKDILGFAVMFFIVFFAYAQLGYLLFGTQVENFSTFIKCIFTQFRIILGDFDYNAIDNANRILGPAYFVTYVFFVFFVLLNMFLAIINDTYSEVKEELAGQKDELQLSDLLKQGYNKTLLRLRLRKERVSDVQKVLQGGEQEIQFEDFTNTLRELGHAEHEITELTATFTKFDRDGNRILDEKEQEKMRQDLEEERVALNTEIEKLGRSIVSSPQGKSGPEAARAGGWVSGEEFYMLTRRVLQLETVLEGVVSQIDAVGSKLKMLERKGWLAPSPGVKEQAIWKHPQPAPAVTPDPWGVQGGQESEVPYKREEEALEERRLSRGEIPTLQRS
# modifications: glycan at N207; disulfide bond C210-C223
# notes: polycystin 2-l1 (PKD2L1), human, full length; synthetic gene, not codon optimized; UniProt Q9P0L9; No cleavage of the MBP tag is described; fractions were found by western blot against MBP during the preparation for cryo-EM; The N terminus, the S4-S5 linker and the C terminus are not resolved in the map; also called PKD2L1; PC-2L1
# Biological target: the molecule itself
# Assay: cryo-EM structure; single particle cryo-EM of purified full-length polycystin 2-l1 in amphipol PMAL-C8, HKN buffer (HEPES 50, KCl 150, NaCl 50, CaCl2 5 mM; pH 7.5), C4 symmetry imposed, 3.3 Å
protein,measurement,value
B1,stoichiometry N,4
